This assay deals with RelJ antitoxin (recombinant His-tagged) (M. tuberculosis) (UniProt P9WF24). The assay can be described thus: native gel or EMSA.

From PMC12239584 come the findings set out here.

Sequence of UniProt P9WF24 (P9WF24 whole entry): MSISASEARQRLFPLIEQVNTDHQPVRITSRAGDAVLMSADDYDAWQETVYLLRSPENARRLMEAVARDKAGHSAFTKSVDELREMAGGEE

“RelK toxin (recombinant His-tagged, unphosphorylated) (from UniProt P9WF08 2-85) (natural protein)”: the stoichiometry N (RelK per RelJ) is 1.
